Laboratory results taken from publication PMC10426277.

Target: Peroxiredoxin 4 wildtype, recombinant full-length (human) (UniProt Q13162)
Test: SPR

Chain of Sulfiredoxin (Srx), recombinant full-length (Q9BYN0 whole entry): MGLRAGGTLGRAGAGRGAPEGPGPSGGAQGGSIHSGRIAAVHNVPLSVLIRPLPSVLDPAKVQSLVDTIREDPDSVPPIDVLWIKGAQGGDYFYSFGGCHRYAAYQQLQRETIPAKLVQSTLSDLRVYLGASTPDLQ

Kd: 3.26 mM
koff: 0.00166 s⁻¹
kon: 0.509 M⁻¹ s⁻¹
Substance: Sulfiredoxin (Srx), recombinant full-length (from UniProt Q9BYN0 1-137) (enzyme)
